Experimental data as given in patent publication US12281340B2, “Method of producing N-acyl-amino group-containing compound” (AJINOMOTO CO., INC., priority 2018, dated 2025).

Legend:
Type in all cases: biochemical
Parameters in all cases: key: +: Detected; −: Not detected
[1] = Synthesis of N-caprinoylamino acid using purified acylamino acid synthetase, UPLC-MS detection; conditions: +ATP
Procedure, shortened: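 Purified enzyme (50 μg) with 5 mM amino acid, 5 mM sodium caprate, 10 mM ATP, 10 mM MgCl2, 1 mM DTT in Tris-HCl pH 8.0, 24 h at 25° C; product detected by UPLC-MS (ESI-negative) as the N-caprinoyl amino acid mass signal.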

[2] = Synthesis of N-caprinoyl-amino acid derivative, N-caprinoyl-D-amino acid and N-caprinoyl-peptide using purified acylamino acid synthetase, UPLC-MS detection; conditions: +ATP
Procedure, shortened: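 Purified enzyme (50 μg/mL) was incubated with 5 mM sodium caprate, 5 mM amino acid derivative, D-amino acid or peptide, 10 mM ATP, 10 mM MgCl2 and 1 mM DTT in 50 mM Tris-HCl, pH 8.0, for 24 h at 25 °C. After acidic methanol stop, UPLC-MS looked for the mass of the N-caprinoyl product.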

[3] = Synthesis of N-acylamino acids from various fatty acids using purified acylamino acid synthetase, UPLC-MS detection
Procedure, shortened: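 Purified enzyme (200 μg/mL) with 5 mM amino acid, 5 mM sodium fatty acid (3 mM palmitate or stearate, plus 10% methanol), 10 mM ATP, 10 mM MgCl2, 1 mM DTT in 50 mM Tris-HCl pH 8.0, shaken 24 h at 25 °C. Amino acid varied by enzyme; product mass detected by UPLC-MS (ESI-negative).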

B1: SsGH3: GH3 auxin-responsive promoter superfamily from Synechococcus sp. PCC 7335, His-tagged (protein)
chain: MVIHTIPKEILDSVASTGDVFAYHLLRSTGDIGETVLQYLLCLAAKVNLTGIEQDTYNADKVQEQLLNDILRSENKTLYGKKYNFDSLNVDSFRSSLPLTSYENYRESIDNVVQTGNYSQLVSEPITLFQESSGTTGKVKLIPRTNKFTLSAMRAFQAIEAVVQSHFQNPSSSSQRVLALVNTSPTKLTPTGIPRGTGTSGGLNDALQKFKLANYLIDIKYSSPSPVFLISNTEAAYYCHLLFGLLDSDINDISANFAATVLNAMKILEKAWTQLVEDIRQGKLYAGLDIDEATRRELEIRLRANPERARELQAYFEEGFEGILPRIWPSLSCIQCITTGSMQLYTDALRYYSGTVPFFSGSYGASEAWIGVNLDPEREPPAFVVTPHTAFFEFIPQDAIDQEQSATVCLTDLKPGESYEVVVTNMSGLYRYRVGDVVRCVGYHHKSPMIEFMYRRQTLLNLFGEKVSEDVIYSALSTTLREFGMAIQDIDYTCRHEFEGTPWRYVVYLEPADYEGCSSQHEMVQQRLDEVLCNLSDRYRQLREVGSIGSLKLKLVREGTFSGLKTRLLSQEHSDSQFKMPRLLTETALISFMESSL
modifications: His-tag; Synechococcus PCC 7335
notes: GH3 auxin-responsive promoter superfamily from Synechococcus sp; PCC 7335, His-tagged
- signal of molecular weight corresponding to N-caprinoyl amino acid ([1]; substrates GABA and sodium caprate): −
- signal of molecular weight corresponding to N-caprinoyl amino acid ([1]; substrates Gly and sodium caprate): +
- signal of molecular weight corresponding to N-caprinoyl amino acid ([1]; substrates L-Ala and sodium caprate): +
- signal of molecular weight corresponding to N-caprinoyl amino acid ([1]; substrates L-Arg and sodium caprate): −
- signal of molecular weight corresponding to N-caprinoyl amino acid ([1]; substrates L-Asn and sodium caprate): −
- signal of molecular weight corresponding to N-caprinoyl amino acid ([1]; substrates L-Asp and sodium caprate): +
- signal of molecular weight corresponding to N-caprinoyl amino acid ([1]; substrates L-Cys and sodium caprate): −
- signal of molecular weight corresponding to N-caprinoyl amino acid ([1]; substrates L-Gln and sodium caprate): −
- signal of molecular weight corresponding to N-caprinoyl amino acid ([1]; substrates L-Glu and sodium caprate): −
- signal of molecular weight corresponding to N-caprinoyl amino acid ([1]; substrates L-His and sodium caprate): −
- signal of molecular weight corresponding to N-caprinoyl amino acid ([1]; substrates L-Ile and sodium caprate): +
- signal of molecular weight corresponding to N-caprinoyl amino acid ([1]; substrates L-Leu and sodium caprate): +
- signal of molecular weight corresponding to N-caprinoyl amino acid ([1]; substrates L-Lys and sodium caprate): −
- signal of molecular weight corresponding to N-caprinoyl amino acid ([1]; substrates L-Met and sodium caprate): +
- signal of molecular weight corresponding to N-caprinoyl amino acid ([1]; substrates L-Phe and sodium caprate): −
- signal of molecular weight corresponding to N-caprinoyl amino acid ([1]; substrates L-Pro and sodium caprate): −
- signal of molecular weight corresponding to N-caprinoyl amino acid ([1]; substrates L-Ser and sodium caprate): +
- signal of molecular weight corresponding to N-caprinoyl amino acid ([1]; substrates L-Thr and sodium caprate): −
- signal of molecular weight corresponding to N-caprinoyl amino acid ([1]; substrates L-Trp and sodium caprate): −
- signal of molecular weight corresponding to N-caprinoyl amino acid ([1]; substrates L-Tyr and sodium caprate): −
- signal of molecular weight corresponding to N-caprinoyl amino acid ([1]; substrates L-Val and sodium caprate): +
- signal of molecular weight corresponding to N-caprinoyl amino acid ([1]; substrates β-Ala and sodium caprate): +
- signal of molecular weight corresponding to N-caprinoyl compound ([2]; substrates Carnosine and sodium caprate): −
- signal of molecular weight corresponding to N-caprinoyl compound ([2]; substrates D-Ala and sodium caprate): +
- signal of molecular weight corresponding to N-caprinoyl compound ([2]; substrates D-Asp and sodium caprate): +
- signal of molecular weight corresponding to N-caprinoyl compound ([2]; substrates D-Cys and sodium caprate): −
- signal of molecular weight corresponding to N-caprinoyl compound ([2]; substrates D-Glu and sodium caprate): +
- signal of molecular weight corresponding to N-caprinoyl compound ([2]; substrates D-Ile and sodium caprate): −
- signal of molecular weight corresponding to N-caprinoyl compound ([2]; substrates D-Lys and sodium caprate): −
- signal of molecular weight corresponding to N-caprinoyl compound ([2]; substrates L-Asp-L-Phe and sodium caprate): −
- signal of molecular weight corresponding to N-caprinoyl compound ([2]; substrates L-Gly-L-Gly and sodium caprate): +
- signal of molecular weight corresponding to N-caprinoyl compound ([2]; substrates Sarcosine and sodium caprate): −
- signal of molecular weight corresponding to N-caprinoyl compound ([2]; substrates Taurine and sodium caprate): +
- signal of molecular weight corresponding to N-acylamino acid ([3]; substrates L-Ala and Capric acid): +
- signal of molecular weight corresponding to N-acylamino acid ([3]; substrates L-Ala and Caproic acid): +
- signal of molecular weight corresponding to N-acylamino acid ([3]; substrates L-Ala and Caprylic acid): +
- signal of molecular weight corresponding to N-acylamino acid ([3]; substrates L-Ala and Lauric acid): +
- signal of molecular weight corresponding to N-acylamino acid ([3]; substrates L-Ala and Linoleic acid): −
- signal of molecular weight corresponding to N-acylamino acid ([3]; substrates L-Ala and Palmitic acid): −
- signal of molecular weight corresponding to N-acylamino acid ([3]; substrates L-Ala and myristic acid): +
